Assays:
Experiment in all cases: cells, lysate or membranes
[1] = substrate: C[C@]12CCC(=O)C[C@@H]1CC[C@@H]1[C@@H]2CC[C@]2(C)[C@@H](O)CC[C@@H]12; details: UDP-glucuronic acid co-substrate, 37 °C, DHT-glucuronide formation
[2] = substrate: C[C@]12CC[C@H]3[C@@H](CCC4=CC(=O)CC[C@@]43C)[C@@H]1CC[C@@H]2O; details: UDP-glucuronic acid co-substrate, 37 °C, testosterone-glucuronide formation
[3] = substrate: C[C@]12CC[C@@H](O)C[C@@H]1CC[C@@H]1[C@@H]2CC[C@]2(C)[C@@H](O)CC[C@@H]12; details: UDP-glucuronic acid co-substrate, 37 °C, 17-glucuronide (3α-Diol-17G) formation
[4] = table value, text b37 prints 22.5 ± 5.1
[5] = table value, text b37 prints 17.8 ± 2.0

Protein | Km [1] | Vmax [1] | Km [2] | Vmax [2] | Km [3, 4] | Vmax [3, 4] | Km [3] | Vmax [3] | Km [3, 5] | Vmax [3, 5]
Ugt2b5 (Mus musculus) (protein) GKVLVWPMEFSHWMNIKIILDELVQRGHEVTVLRPSAYYVLDPKKSPGLKFETFPTSVSKDNLENFFIKFVDVWTYEMPRDTCLSYSPLLQNMIDEFSDYFLSLCKDVVSNKELMTKLQESKFDVLLSDPVASCGELIAELLQIPFLYSIRFSPGYQIEKSSGRFLLPPSYVPVILSGLGGQMTFIERIKNMICMLYFDFWFQMFNDKKWDSFYSEYLGRPTTLVETMGQAEMWLIRSNWDLEFPHPTLPNVDYVGGLHCKPAKPLPKDMEEFVQSSGDHGVVVFSLGSMVSNMTEEKANAIAWALAQIPQKVLWKFDGKTPATLGHNTRVYKWLPQNDLLGHPKTKAFVTHGGANGVYEAIYHGIPMIGIPLFGEQHDNIAHMVAKGAAVALNIRTMSKSDVLNALEEVIENPFYKKNAIWLSTIHHDQPMKPLDRAVFWIEFVMRHKRAKHLRPLGHNLTWYQYHSLDVIGFLLSCVATTIVLSVKCLLFIYRFFVKKENKMKNE | 35.6 ± 11.5 µM | 5.05e-05 µmol/min/mg | 65.5 ± 8.6 µM | 0.000186 µmol/min/mg | 22.7 ± 5.1 µM | 0.000115 µmol/min/mg |  |  |  | 
Ugt2b34 (Mus musculus) (protein) GKVLVWPMEFSHWLNLKTILDELLKKGHEVMVLRPSASLSYEVDNTSAIEFETYPTSYSLSELEEIFWESLKKYIYELPKQSFWGYFLMLQEMVWVDSKYFESLCKDVVFNKELMTKLQKSRFDVILADPFIPCGDLLAEVLKIPLVYSLRFFPGSTYEKYSGGLPLPPSYVPVVMSELSDRMTFMERVRNVIYMLCFDFWFQTFNEKNWNQLYTEVLGRPTTLSETMAKADIWLIRTYWDLEFPHPVLPNFDFIGGLHCRPAKPLPKEIEDFVQSSGEHGVVVFSLGSMVGSITEERANVIAAGLAQIPQKVLWRFEGKKPETLGSNTRLYKWIPQNDLLGHSKTRAFITHGGTNGIYEAIYHGIPVVGIPLFGDQYDNIVHLKAKGAAVRLDFLTMSSTDLHTALKTVTNDPSYKENAMRLSRIHHDQPVKPLDRAVFWIEFVMRHKGAKHLRVAAHDLSWVQYHSLDVLGFLLACVLTVMFILKKCCLFCCQKLTKAGRKKKGE | 54.9 ± 2.9 µM | 4.31e-05 µmol/min/mg |  |  |  |  | 16.3 ± 4.8 µM | 8.5e-06 µmol/min/mg |  | 
Ugt2b1 (Mus musculus) (protein) KVLVWPTEYSHWINMKIILDELVQRGHDVTVLISSASILIGPSNESSINFEIYSAPLSKDDLEYAFEKWVGNWTYELKKLPFWTSYSKLQKISSEYSDMIESFCKAVVWNKSLMKKLQGSKFDVVLADALVPCGELLSELLKTPLVYSLRFCPGYKCEKYSGGLPLPPSYVPVVLSELSDHMTFAERVKNMLQVLLFDFWFQTFNEKSWNQFYSDVLGRPTTLTEMMGKADIWLVRTFWDLKFPHPFLPNFDFVGGLHCKPAKPLPKEMEEFVQSSGEHGVVVFSLGSMVKNIKEEKANVVASALAQIPQKVLWRFDGKKPDTLGSNTRLYKWIPQNDLLGHPKTKAFIAHGGTNGIYEAIYHGIPIVGIPLFGDQPDNINHIVAKGAAVRVDFDTMSTTDLLTALKTVINDPSYKENAMRLSRIHHDQPMKPLDRAVFWIEYVMRNKGAKHLRPALHDLTWFQYHSLDVIGFLLVCVVAVVFIIAKCCLFCCHKTANMGKKKKE | 17.8 ± 0.7 µM | 0.000238 µmol/min/mg | 20.3 ± 0.7 µM | 5.12e-05 µmol/min/mg |  |  |  |  | 11.7 ± 2.0 µM | 3.48e-05 µmol/min/mg
